Values quoted from earlier work as cited in patent publication US20130337579.

Target: CRP (cited studies) (Escherichia coli) (UniProt P0ACJ8)
Test: EMSA
Conditions: CITED Fried 1984

CRP (cited studies) (Escherichia coli), sequence (P0ACJ8 2-210): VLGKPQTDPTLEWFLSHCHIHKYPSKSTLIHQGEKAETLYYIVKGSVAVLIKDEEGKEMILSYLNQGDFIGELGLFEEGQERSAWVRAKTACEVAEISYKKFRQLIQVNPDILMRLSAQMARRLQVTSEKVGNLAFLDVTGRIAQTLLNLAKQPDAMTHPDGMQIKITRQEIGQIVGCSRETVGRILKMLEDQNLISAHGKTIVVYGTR

Question: For lac CRP oligo (Fried 1984), which Kd (200 nM cAMP) is on record?
Answer: The Kd was 63 nM.

Question: And the Kd (5 uM cAMP)?
Answer: Its Kd is 0.84 nM.
